# Measurements taken from the nanobody polyreactivity screen of Harvey et al. (2022).
# Test: yeast display, Sf9 membrane polyspecificity reagent, FACS + sequencing; frameworks hold sequencing errors
# How it was run: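 Galactose induction of a Saccharomyces cerevisiae BJ5465 synthetic nanobody display library ran 36–48 hours. The cells were then stained for 1 hour at 4 °C with 10% biotinylated, detergent-solubilized Sf9 membrane reagent, pulled down on streptavidin microbeads and FACS-sorted into low and high (top ~1%) gates on expression and reagent-binding fluorescence. Labels for polyreactivity follow the gate of origin.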
row,Sequence,polyreactivity (PSR sort gate)
1,QDQLVESGGGLVQAGGSLRLSCAASGRTFRRNAMGWYRQAPGKERELVAAITWRGTSTYYADSVKGRFTISRDNAKNTVYLQMNSLKPEDTAVYYCAAVVKDSRPYQAYVGSIHRDYWGQGTQVTVSS,high polyreactivity
2,QDQLVESGGGLVQAGGSLRLSCAASGRTFWRYALGWYRQAPGKEREMVAAISSGGITYYADSVKGRFTISRDNAKNTVYLQMNSLKPEDTAVYYCARYGPYESSYHYDYWGQGTQVTVSS,high polyreactivity
3,QDQLVESGGGLVQAGGSLRLSCAASGRTLYYYTMGWYRQAPGKERELVAAITWSGGSTYADSVKGRFTISRDNAKNTVYLQMNSLKPEDTAVYYCAAVRTSRFDYWGQGTQVTVSS,high polyreactivity
4,QDQLVESGGGLVQAGGSLRLSCAASGRTYASNAMGWYRQAPGKERELVAAITYSGSSTYYADSVKGRFTISRDNAKNTVYLQMNSLKPEDTAVYYCGKGGRRWTYKTWKGYDYWGQGTQVTVSS,high polyreactivity
5,QDQLVESGGGLVQAGGSLRLSCAASGSIFGPYAMGWYRQAPGKERELVAAITYRGDSTYYADSVKGRFTISRDYAKNTVYLQMNSLKPEDTAVYYCAAEYIYDLWEEYWGQGTQVTVSS,high polyreactivity
6,QDQLVESGGGLVQAGGSLRLSCAASGSIFGYNDMGWYRQAPGKERELVATITWGGGRTRYADSVKGRFTSSRDNAKNTVYLHMNSLKPEVTAVYYCAADVLRISTLLFRGPGFDSWGQGTQVTVSS,low polyreactivity
7,QDQLVESGGGLVQAGGSLRLSCAASGSIFPVYDMGWSRQAPGTEREMVAAISVSGGSTYYADSVKGRFTISRDNAKNTVYLQMKSLKPEDTAVYYCIADVHLYWYWYYEREDYWGQGTQVTVSS,low polyreactivity
8,QDQLVESGGGLVQAGGSLRLSCAASGSIFRPNAMGWYRQAHGKERELVAAITYSTGSTYYADSVKGRFTISRDNAKNTVYLQMNSLKPEDTAVYYCAARFWRWLFPFDYLGQGTQVTVSS,high polyreactivity
9,QDQLVESGGGLVQAGGSLRLSCAASGSIFRTYAMGWYRQAPGKERELVATITYSDGNTYYADSVKGRFTISRDNAKNTVYLQMNSLKPEDTAFYYSNADGIYASISGYRYDYWGQGTLVTVSS,low polyreactivity
10,QDQLVESGGGLVQAGGSLRLSCAASGSIFRYYVRGWYREAPGKERELVAAISKSGGSTYYADSVKGRFTISRDNAKNTVYLQMNSLKPEDTAVYYCAAGNTRGGDFNYWGQGTQVTVSS,high polyreactivity
11,QDQLVESGGGLVQAGGSLRLSCAASGSIFSKNTMGWYRQAPGKERELVAAISGSGVSTYYADSVKGRFTISRDNAKNTVYLQMNSLKPEDTAVYYCAAGPRFRYYSGWYDYWGQGTQVTVSS,high polyreactivity
12,QDQLVESGGGLVQAGGSLRLSCAASGSIFSNYAMGWYRQAPGKERELVATITSAGSTYYADSVKGRFTISRDNAKNTVYLQLNSLKPEDTAVYYCAALYLGSYDYYDDMDYWGQGTQVTVSS,low polyreactivity
13,QDQLVESGGGLVQAGGSLRLSCAASGSIFSSNAMGWYRQAPGKERELVAAINKSGGRTYYADSVKGRFTISRDNAKNTVYLQMNSLKPEDTAVYYCNKYGLASGLDYWGQGTQVTVSS,high polyreactivity
14,QDQLVESGGGLVQAGGSLRLSCAASGSIFTSNAMGWYRQAPGKERELVAVITGSTGRTHYADSVKGRFTISRDNAKNTVYLQMNSLKPEDTAVYYCAAGLTFVTNFDYWGQGTQVTVSS,low polyreactivity
15,QDQLVESGGGLVQAGGSLRLSCAASGSIFYWYAMGWYRQAPGKERELVAAISKSGGSTYYADSVKGRFTISRDTAKNTVYLQMNSLKPEDTAVYYCAARYLYQGYRFDYWGQGTQVTVSS,high polyreactivity
16,QDQLVESGGGLVQAGGSLRLSCAASGSNFVINAMGWYRQAPGKERELVAAISYSGTGTYYADSVKGRFTISRDNAKNTVYLQMNSLKPEDTAVYYCAGDYYYRYRIYDYWGQGTQVTVSS,low polyreactivity
17,QDQLVESGGGLVQAGGSLRLSCAASGSTFNAYAMGWYRQAPGKERELVADISISGGTYYADSVKGRFTISRDNAKNTVYLQMNSLKPEDTAVYYCAAKPSWHGVYYWGQGTQVTVSS,low polyreactivity
18,QDQLVESGGGLVQAGGSLRLSCAASGSTFRWYAMGWYRQAPGKERELVAAIRRIGSRTYADSVKGRFTISRDNAKNTVYLQMNSLKPEDTAVYYCATRYKYTGYDYWGQGTQVTVTS,high polyreactivity
19,QDQLVESGGGLVQAGGSLRLSCAASGSTFSNYAMGWYRQAPGKERELVASISQSGGSTYYADSVKGRFTISRDNAKNTVYLQMNSLKPEDTAVYYCAADVAQVGYQVGVSEIYPGYEYWGQGTQVTVSS,low polyreactivity
20,QDQLVESGGGLVQAGGSLRLSCAASGSTFSVYAMGWYRRAPGKERELVATIRGRGGSTSYADSVKGRFTISRDNAKNTVYLQMNSLKPEDTAVYYCAARVVRDWASKRIILALSNYVYWGQGTHVTVSS,high polyreactivity
21,QDQLVESGGGLVQAGGSLRLSCAASGSTFTTNVMGWYRQAPGKERELVAAISWSSGSTYYADSVKGRFTISRDNAKNTDYLQMNSLKPEDTAVYYCAARLVIFYPYSRYYYWGQGTQVTVSS,high polyreactivity
22,QDQLVESGGGLVQAGGSLRLSCAASGSTFTYNTKGWYRQAPGKERELVAAITTSGGNTYYADSVKGRFTISRDNAKNTVYLQMNSLKPVDTAVYYCAAGYSWAEGDYWGQGTQVTVSS,low polyreactivity
23,QDQLVESGGGLVQAGGSLRLSCAASGSTFVENAMGWYRQAPGKERELVAAISSSGDSTFYADSVKGRFTISRDNAKNTVYLQMNSLKPEDTAVYYCNTPLLKRTTRGRERNYWGQGTQVTVSS,low polyreactivity
24,QDQLVESGGGLVQAGGSLRLSCAASGSTFVKYAMGWYRQAPGKERELVAAITKGGGSTYYADSVKGRFTISRDNAKNTVYLQMNSLKPEDTAVYYCNTSPHYRYGMDYWGQGTQVTVSS,high polyreactivity
25,QDQLVESGGGLVQAGGSLRLSCAASGSTFWANAMGWYRQAPGKEWELDARITYSGGSTYYADSVKGRFTISRDYAKNTVYLQMNSLKPEDTAVYYCAAEHYLCYDYWGQGTQVTVSS,low polyreactivity
26,QDQLVESGGGLVQAGGSLRLSCAASGSTFYNYAMAWYRQAPGKEREFVAAISSGGGITYYADSVKGRFTISRDNAKNTVFLQMISLIPEDTAVYYCNAKMISGISTADSRSRIYDYWGHGTQVTVSS,high polyreactivity
27,QDQLVESGGGLVQAGGSLRLSCAASGSTLAGYAMGWYRLAPGKVRELVAAIDWTGGSTTYADSVKGRFTISRDNAKNTVYLQMNSLKPEDTAVYYCNVDLGVNGDYWGQGTQVTVSS,low polyreactivity
28,QDQLVESGGGLVQAGGSLRLSCAASGSTLDGNAMGWYRQAPGKERELVAGIDTGGSTYYADSVKGRFTISRDNAKNTVYLQMNSLKPEDTAVYYCAATDREDYDYWGQGTQVTVSS,low polyreactivity
29,QDQLVESGGGLVQAGGSLRLSCAASGSTLEYKAIGRYRQAPGQERELVAVINRSDGSTYYADSVKGRFTISRDNAKNTVYLQMNSLKPEDTEVYYCADDRHQVSGISTEDYWGQGTQVTVSS,low polyreactivity
30,QDQLVESGGGLVQAGGSLRLSCAASGSTLFYAMGWYRQAPGKERELVAAISWSGGSTRYADSVKGRFTISRDNAKNTVYLQMNSLKPEDTAVYYCNRDPDTWGYQPDWYYGAYDYWGQGTQVTVSS,low polyreactivity
